Experimental data from publication PMC9482650, “Quantitative fragmentomics allow affinity mapping of interactomes” (Nature Communications, 2022).

T1: FRMPD1, Q5SYB0
T1 sequence (Q5SYB0 52-145, limits assumed, looked up): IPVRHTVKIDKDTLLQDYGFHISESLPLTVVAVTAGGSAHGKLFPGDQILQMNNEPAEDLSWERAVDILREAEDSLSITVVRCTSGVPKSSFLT

T2: GRIP1_3, Q9Y3R0
T2 sequence (Q9Y3R0 247-346, limits assumed, looked up): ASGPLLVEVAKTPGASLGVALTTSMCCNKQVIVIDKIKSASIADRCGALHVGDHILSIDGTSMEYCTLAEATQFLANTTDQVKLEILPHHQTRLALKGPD

T3: TJP3_3, O95049
T3 sequence (O95049 375-456, limits assumed, looked up): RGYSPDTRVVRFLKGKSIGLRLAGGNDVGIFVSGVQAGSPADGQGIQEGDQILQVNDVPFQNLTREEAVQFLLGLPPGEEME

T4: APBA2_1, Q99767
T4 sequence (Q99767 563-664, limits assumed, looked up): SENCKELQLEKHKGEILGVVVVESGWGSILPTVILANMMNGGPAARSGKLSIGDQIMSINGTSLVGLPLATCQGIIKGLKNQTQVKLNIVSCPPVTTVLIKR

T5: LNX2_3, Q8N448
T5 sequence (Q8N448 463-564, limits assumed, looked up): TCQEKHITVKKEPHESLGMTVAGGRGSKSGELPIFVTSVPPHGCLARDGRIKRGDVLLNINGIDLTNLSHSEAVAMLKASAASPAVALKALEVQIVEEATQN

T6: NHERF3_4, Q5T2W1
T6 sequence (Q5T2W1 373-468, limits assumed, looked up): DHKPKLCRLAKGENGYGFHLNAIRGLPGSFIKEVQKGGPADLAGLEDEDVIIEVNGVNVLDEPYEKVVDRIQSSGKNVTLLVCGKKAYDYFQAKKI

T7: PDZD7_3, Q9H5P4
T7 sequence (Q9H5P4 857-944, limits assumed, looked up): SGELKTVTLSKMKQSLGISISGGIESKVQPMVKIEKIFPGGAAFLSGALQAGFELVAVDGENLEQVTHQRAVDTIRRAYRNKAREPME

T8: LRRC7, Q96NW7
T8 sequence (Q96NW7 1440-1537, limits assumed, looked up): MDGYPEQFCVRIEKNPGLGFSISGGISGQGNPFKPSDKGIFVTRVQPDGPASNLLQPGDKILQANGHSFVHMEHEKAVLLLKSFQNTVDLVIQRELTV

T9: NHERF3_3, Q5T2W1
T9 sequence (Q5T2W1 238-333, limits assumed, looked up): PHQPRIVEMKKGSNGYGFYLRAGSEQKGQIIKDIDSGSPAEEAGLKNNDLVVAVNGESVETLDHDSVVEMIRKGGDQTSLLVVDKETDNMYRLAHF

T10: APBA2_2, Q99767
T10 sequence (Q99767 654-744, limits assumed, looked up): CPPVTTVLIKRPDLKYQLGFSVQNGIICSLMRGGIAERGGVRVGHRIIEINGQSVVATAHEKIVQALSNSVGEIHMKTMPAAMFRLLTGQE

T11: HTRA3, P83110
T11 sequence (P83110 354-453, limits assumed, looked up): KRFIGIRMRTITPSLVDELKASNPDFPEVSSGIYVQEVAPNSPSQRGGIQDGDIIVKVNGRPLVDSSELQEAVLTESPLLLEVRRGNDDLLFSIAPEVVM

T12: PDZD2_2, O15018
T12 sequence (O15018 329-429, limits assumed, looked up): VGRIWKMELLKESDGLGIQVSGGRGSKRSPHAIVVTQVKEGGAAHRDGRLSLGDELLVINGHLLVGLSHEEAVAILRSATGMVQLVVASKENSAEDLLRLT

T13: ARHGAP21, Q5T5U3
T13 sequence (Q5T5U3 45-169, limits assumed, looked up): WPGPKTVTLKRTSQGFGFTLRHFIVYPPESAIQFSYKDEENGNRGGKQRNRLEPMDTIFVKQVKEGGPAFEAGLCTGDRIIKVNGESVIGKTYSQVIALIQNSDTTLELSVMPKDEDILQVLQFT

B1: TNRC6B, Q9UPQ9 (peptide)
chain: DLLGGGSDSI
B2: TMEM178A, Q8NBL3 (peptide)
chain: QLKSGRDSTV

Each binder was assayed against TJP1_3, Q07157 (assay: holdup assay). Details: plain residues with an end cap or a label only (N-terminal biotin on a linker: ado-ado).
Set-up: key: below the threshold = too weak to quantify, mostly under pKd 3.1 to 4

TJP1_3, Q07157, sequence (Q07157 416-512): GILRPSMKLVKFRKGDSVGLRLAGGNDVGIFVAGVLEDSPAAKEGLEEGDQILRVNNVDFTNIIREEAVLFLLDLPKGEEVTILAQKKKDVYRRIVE

| pKd | Binder |
| --- | --- |
| below the threshold | B1 |
| 3.5 | B2 |

Each binder was assayed against T1, FRMPD1, Q5SYB0 (assay: holdup assay). Details: plain residues with an end cap or a label only (N-terminal biotin on a linker: ado-ado).
Set-up: key: below the threshold = too weak to quantify, mostly under pKd 3.1 to 4

| pKd | Binder |
| --- | --- |
| below the threshold | B1 |
| below the threshold | B2 |

These binders were tested against T2, GRIP1_3, Q9Y3R0 (assay: holdup assay). Details: plain residues with an end cap or a label only (N-terminal biotin on a linker: ado-ado).
Set-up: key: below the threshold = too weak to quantify, mostly under pKd 3.1 to 4

| pKd | Binder |
| --- | --- |
| below the threshold | B1 |
| below the threshold | B2 |

The binders below were run against T3, TJP3_3, O95049 (assay: holdup assay). Details: plain residues with an end cap or a label only (N-terminal biotin on a linker: ado-ado).
Set-up: key: below the threshold = too weak to quantify, mostly under pKd 3.1 to 4

| pKd | Binder |
| --- | --- |
| below the threshold | B1 |
| 3.5 | B2 |

These binders were tested against Inadl_3, Q8NI35 (assay: holdup assay). Details: plain residues with an end cap or a label only (N-terminal biotin on a linker: ado-ado).
Set-up: key: below the threshold = too weak to quantify, mostly under pKd 3.1 to 4

Inadl_3, Q8NI35, sequence (Q8NI35 359-469): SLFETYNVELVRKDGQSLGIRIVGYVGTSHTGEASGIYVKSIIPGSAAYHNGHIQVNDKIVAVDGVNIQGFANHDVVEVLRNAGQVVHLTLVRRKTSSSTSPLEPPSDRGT

| pKd | Binder |
| --- | --- |
| below the threshold | B1 |
| below the threshold | B2 |

These binders were tested against T4, APBA2_1, Q99767 (assay: holdup assay). Details: plain residues with an end cap or a label only (N-terminal biotin on a linker: ado-ado).
Set-up: key: below the threshold = too weak to quantify, mostly under pKd 3.1 to 4

| pKd | Binder |
| --- | --- |
| below the threshold | B1 |
| 3.52 | B2 |

These binders were tested against T5, LNX2_3, Q8N448 (assay: holdup assay). Details: plain residues with an end cap or a label only (N-terminal biotin on a linker: ado-ado).
Set-up: key: below the threshold = too weak to quantify, mostly under pKd 3.1 to 4

| pKd | Binder |
| --- | --- |
| below the threshold | B1 |
| below the threshold | B2 |

The binders below were run against T6, NHERF3_4, Q5T2W1 (assay: holdup assay). Details: plain residues with an end cap or a label only (N-terminal biotin on a linker: ado-ado).
Set-up: key: below the threshold = too weak to quantify, mostly under pKd 3.1 to 4

| pKd | Binder |
| --- | --- |
| below the threshold | B1 |
| 3.58 | B2 |

The binders below were run against T7, PDZD7_3, Q9H5P4 (assay: holdup assay). Details: plain residues with an end cap or a label only (N-terminal biotin on a linker: ado-ado).
Set-up: key: below the threshold = too weak to quantify, mostly under pKd 3.1 to 4

| pKd | Binder |
| --- | --- |
| below the threshold | B1 |
| 4.19 | B2 |

Each binder was assayed against Inadl_9, Q8NI35 (assay: holdup assay). Details: plain residues with an end cap or a label only (N-terminal biotin on a linker: ado-ado).
Set-up: key: below the threshold = too weak to quantify, mostly under pKd 3.1 to 4

Inadl_9, Q8NI35, sequence (Q8NI35 1530-1615): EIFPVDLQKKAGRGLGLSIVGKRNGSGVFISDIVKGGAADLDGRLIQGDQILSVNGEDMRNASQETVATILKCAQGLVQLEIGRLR

| pKd | Binder |
| --- | --- |
| below the threshold | B1 |
| 3.52 | B2 |

The binders below were run against T8, LRRC7, Q96NW7 (assay: holdup assay). Details: plain residues with an end cap or a label only (N-terminal biotin on a linker: ado-ado).
Set-up: key: below the threshold = too weak to quantify, mostly under pKd 3.1 to 4

| pKd | Binder |
| --- | --- |
| below the threshold | B1 |
| below the threshold | B2 |

These binders were tested against T9, NHERF3_3, Q5T2W1 (assay: holdup assay). Details: plain residues with an end cap or a label only (N-terminal biotin on a linker: ado-ado).
Set-up: key: below the threshold = too weak to quantify, mostly under pKd 3.1 to 4

| pKd | Binder |
| --- | --- |
| below the threshold | B1 |
| below the threshold | B2 |

These binders were tested against T10, APBA2_2, Q99767 (assay: holdup assay). Details: plain residues with an end cap or a label only (N-terminal biotin on a linker: ado-ado).
Set-up: key: below the threshold = too weak to quantify, mostly under pKd 3.1 to 4

| pKd | Binder |
| --- | --- |
| below the threshold | B1 |
| below the threshold | B2 |

What follows are binders tested against IL16_3, Q14005 (assay: holdup assay). Details: plain residues with an end cap or a label only (N-terminal biotin on a linker: ado-ado).
Set-up: key: below the threshold = too weak to quantify, mostly under pKd 3.1 to 4

IL16_3, Q14005, sequence (Q14005 1107-1207): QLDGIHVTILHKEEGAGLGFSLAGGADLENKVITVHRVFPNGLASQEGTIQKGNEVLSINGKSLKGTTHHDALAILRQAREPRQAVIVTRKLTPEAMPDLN

| pKd | Binder |
| --- | --- |
| below the threshold | B1 |
| below the threshold | B2 |

The binders below were run against DLG1_1, Q12959 (assay: holdup assay). Details: plain residues with an end cap or a label only (N-terminal biotin on a linker: ado-ado).
Set-up: key: below the threshold = too weak to quantify, mostly under pKd 3.1 to 4

| pKd | Binder |
| --- | --- |
| below the threshold | B1 |
| 4.11 | B2 |

What follows are binders tested against DLG2_3, Q15700 (assay: holdup assay). Details: plain residues with an end cap or a label only (N-terminal biotin on a linker: ado-ado).
Set-up: key: below the threshold = too weak to quantify, mostly under pKd 3.1 to 4

| pKd | Binder |
| --- | --- |
| 3.62 | B1 |
| below the threshold | B2 |

The binders below were run against Inadl_5, Q8NI35 (assay: holdup assay). Details: plain residues with an end cap or a label only (N-terminal biotin on a linker: ado-ado).
Set-up: key: below the threshold = too weak to quantify, mostly under pKd 3.1 to 4

Inadl_5, Q8NI35, sequence (Q8NI35 673-780): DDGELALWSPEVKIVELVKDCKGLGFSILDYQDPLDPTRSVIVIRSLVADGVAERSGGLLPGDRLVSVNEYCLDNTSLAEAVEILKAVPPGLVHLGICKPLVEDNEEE

| pKd | Binder |
| --- | --- |
| below the threshold | B1 |
| 3.58 | B2 |

The binders below were run against T11, HTRA3, P83110 (assay: holdup assay). Details: plain residues with an end cap or a label only (N-terminal biotin on a linker: ado-ado).
Set-up: key: below the threshold = too weak to quantify, mostly under pKd 3.1 to 4

| pKd | Binder |
| --- | --- |
| below the threshold | B1 |
| below the threshold | B2 |

What follows are binders tested against FRMPD3, Q5JV73 (assay: holdup assay). Details: plain residues with an end cap or a label only (N-terminal biotin on a linker: ado-ado).
Set-up: key: below the threshold = too weak to quantify, mostly under pKd 3.1 to 4

FRMPD3, Q5JV73, sequence (Q5JV73 12-100): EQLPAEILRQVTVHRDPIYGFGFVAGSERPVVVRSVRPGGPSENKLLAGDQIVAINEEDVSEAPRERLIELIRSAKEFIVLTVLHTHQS

| pKd | Binder |
| --- | --- |
| below the threshold | B1 |
| below the threshold | B2 |

The binders below were run against GOPC, Q9HD26 (assay: holdup assay). Details: plain residues with an end cap or a label only (N-terminal biotin on a linker: ado-ado).
Set-up: key: below the threshold = too weak to quantify, mostly under pKd 3.1 to 4

| pKd | Binder |
| --- | --- |
| below the threshold | B1 |
| 3.57 | B2 |

Each binder was assayed against LNX1_1, Q8TBB1 (assay: holdup assay). Details: plain residues with an end cap or a label only (N-terminal biotin on a linker: ado-ado).
Set-up: key: below the threshold = too weak to quantify, mostly under pKd 3.1 to 4

LNX1_1, Q8TBB1, sequence (Q8TBB1 261-371): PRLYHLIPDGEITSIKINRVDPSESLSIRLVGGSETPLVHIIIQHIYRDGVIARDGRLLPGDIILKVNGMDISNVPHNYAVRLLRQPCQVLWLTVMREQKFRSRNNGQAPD

| pKd | Binder |
| --- | --- |
| 3.76 | B1 |
| below the threshold | B2 |

The binders below were run against GRIP2_7, Q9C0E4 (assay: holdup assay). Details: plain residues with an end cap or a label only (N-terminal biotin on a linker: ado-ado).
Set-up: key: below the threshold = too weak to quantify, mostly under pKd 3.1 to 4

GRIP2_7, Q9C0E4, sequence (Q9C0E4 934-1023): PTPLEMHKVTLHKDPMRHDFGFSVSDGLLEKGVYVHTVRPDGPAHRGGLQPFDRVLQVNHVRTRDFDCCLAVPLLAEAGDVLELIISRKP

| pKd | Binder |
| --- | --- |
| below the threshold | B1 |
| 3.55 | B2 |

What follows are binders tested against MAST1, Q9Y2H9 (assay: holdup assay). Details: plain residues with an end cap or a label only (N-terminal biotin on a linker: ado-ado).
Set-up: key: below the threshold = too weak to quantify, mostly under pKd 3.1 to 4

MAST1, Q9Y2H9, sequence (Q9Y2H9 962-1065): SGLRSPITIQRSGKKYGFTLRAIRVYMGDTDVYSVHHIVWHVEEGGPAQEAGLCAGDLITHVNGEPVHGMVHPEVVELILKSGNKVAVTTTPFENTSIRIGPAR

| pKd | Binder |
| --- | --- |
| 3.85 | B1 |
| 4.02 | B2 |

Each binder was assayed against T12, PDZD2_2, O15018 (assay: holdup assay). Details: plain residues with an end cap or a label only (N-terminal biotin on a linker: ado-ado).
Set-up: key: below the threshold = too weak to quantify, mostly under pKd 3.1 to 4

| pKd | Binder |
| --- | --- |
| 3.68 | B1 |
| 4.32 | B2 |

Each binder was assayed against T13, ARHGAP21, Q5T5U3 (assay: holdup assay). Details: plain residues with an end cap or a label only (N-terminal biotin on a linker: ado-ado).
Set-up: key: below the threshold = too weak to quantify, mostly under pKd 3.1 to 4

| pKd | Binder |
| --- | --- |
| below the threshold | B1 |
| 4 | B2 |
